Data as given in patent US9573987B2 (priority 2011, dated 2017).
Read-outs that look alike come from different tables or passages of the source.

B1: DP22LysC: DP22 cleaved at the lysine of CTP to produce a two chain insulin (protein)
chain 1: APPPSLPSPSRLPGPSDTPILPQEEEEERGPEHLCGAHLVDALYLVCGDRGFYSSSSRAPPPSLPSPSRLPGPSDTPILPQK
chain 2: GIVDECCHRSCDLRRLENYCN
B2: GEEEEEKGPEHLCGAHLVDALYLVCGDRGFYSSSSRAPPPSLPSPSRLPGPSD TPILPQKGIVDECCHRSCDLRRLENYCN (protein, listed as Homo sapiens)
chain: GEEEEEKGPEHLCGAHLVDALYLVCGDRGFYSSSSRAPPPSLPSPSRLPGPSDTPILPQKGIVDECCHRSCDLRRLENYCN

What was measured:
[1] = system: insulin receptor; details: background statement; cited from earlier work
[2] = molecular target: T1, insulin subtype A receptor (IR-A) (Homo sapiens, UniProt P06213); assay: Insulin subtype A receptor phosphorylation, receptor transfected HEK293 cells; format: cell-based
T1 construct: expressed in transfected cells; host or cells: HEK293
Experimental: (§1) Color development was stopped 5 min later by adding 0.05 ml 1 N HCl. Absorbance at 450 nm was measured on Titertek Multiscan MCC340 (ThermoFisher, Pittsburgh, Pa.). […]

[3] = system: human mammary epithelial cells (HMEC); assay: Human mammary epithelial cells proliferation ([14C]-thymidine); format: cell-based; details: Table 15; read-out: Proliferation HMEC EC50
Experimental: The plate was incubated 4 h at 37° C., 5% CO2 and 90% humidity.

[4] = molecular target: T2, IGF-1 receptor (Homo sapiens, UniProt P08069); assay: IGF-1 receptor phosphorylation assay, receptor transfected HEK293 cells; format: cell-based; design: expressed in transfected cells; host or cells: HEK293; details: Table 15; read-out: Receptor Phosphorylation IGF-IR EC50
Experimental: Color development was stopped 5 min later by adding 0.05 ml 1 N HCl. Absorbance at 450 nm was measured on Titertek Multiscan MCC340 (ThermoFisher, Pittsburgh, Pa.).

[5] = molecular target: T3, insulin subtype B receptor (IR-B) (Homo sapiens, UniProt P06213); assay: Insulin subtype B receptor phosphorylation, receptor transfected HEK293 cells; format: cell-based; design: expressed in transfected cells; host or cells: HEK293
Experimental: as §1

[6] = molecular target: T2, IGF-1 receptor; assay: IGF-1 receptor binding assay (competition, scintillation proximity); design: expressed in transfected cells; plasma membrane fragments; details: Table 15; read-out: Receptor Binding IGR-1R EC50
[7] = molecular target: T3, insulin subtype B receptor (IR-B); assay: Insulin subtype B receptor binding (competition binding); design: expressed in transfected cells; plasma membrane fragments; details: Table 15
[8] = system: blood glucose; assay: Comparative insulin tolerance test / insulin dose titration in mice
[9] = read-out: EC50 values (in nM), phosphorylation at the insulin subtype A receptor, experiment of FIG. 18A
[10] = Table 15, read-out: Receptor Phosphorylation IR-B EC50
[11] = read-out: EC50 values (in nM), phosphorylation at the insulin subtype B receptor, experiment of FIG. 18B

Row | Molecule | potency relative to native insulin [1] | EC50 ([2]; Table 15, read-out: Receptor Phosphorylation IR-A- EC50) [nM] | EC50 [2, 9] [nM] | EC50 [3] [nM] | EC50 [4] [nM] | EC50 [5, 10] [nM] | EC50 [5, 11] [nM] | EC50 [6] [nM] | EC50 [7] [nM] | in vitro phosphorylation activity at the insulin subtype A receptor (result in words) ([2]; FIGS. 21, 23) | IC50 ([2]; read-out: Phosphorylation at Insulin Receptor Subtype A (IC50), Table 16A) [nM] | IC50 ([5]; read-out: Phosphorylation at Insulin Receptor Subtype B (IC50), Table 16B) [nM] | blood glucose lowering in insulin tolerance test (result in words) [8]
1 | proinsulin: larger linear precursor of insulin with 35-residue connecting peptide | 2% to 9% | – | – | – | – | – | – | – | – | – | – | – | –
2 | B1 | – | 0.385 | 0.39 ± 0.06 | 29.7 | 23 | 1.41 | 1.88 ± 0.52 | 58.8 | 3.71 | – | – | – | –
3 | B2 | – | – | 0.8 ± 0.2 | 146 | 379 | 4.83 | 10.6 ± 5.06 | 36.9 | 5.44 | nearly equivalent to native hormone | 3.12 | 1.05 | potent insulin receptor agonists
